Residue numbers refer to the chain shown, from its start.
T1: TIM-1 antigen, soluble extracellular domain of TIM-1 (CG57008-02) with a V5-HIS tag (human, UniProt Q96D42 21-288)
T1 construct: also called TIM-1 immunogen; TIM-1 protein
T1 sequence: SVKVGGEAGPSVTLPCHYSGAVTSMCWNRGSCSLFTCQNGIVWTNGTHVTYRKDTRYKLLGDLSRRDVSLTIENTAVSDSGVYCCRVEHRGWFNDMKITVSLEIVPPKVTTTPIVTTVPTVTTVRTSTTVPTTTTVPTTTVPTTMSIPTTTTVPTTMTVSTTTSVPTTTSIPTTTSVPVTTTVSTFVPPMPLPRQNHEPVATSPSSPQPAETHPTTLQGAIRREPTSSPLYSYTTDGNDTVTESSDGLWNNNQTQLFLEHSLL

T2: TIM-1 (T cell, immunoglobulin domain and mucin domain 1), cell membrane-bound (human, UniProt Q96D42 21-364)
T2 construct: whole, on cells; also called TIM-1 antigen expressed on ACHN, CAKI-2, CAKI-1 cells; TIM-1 on polarized human CD4+ Th1/Th2 cells
T2 sequence (looked up): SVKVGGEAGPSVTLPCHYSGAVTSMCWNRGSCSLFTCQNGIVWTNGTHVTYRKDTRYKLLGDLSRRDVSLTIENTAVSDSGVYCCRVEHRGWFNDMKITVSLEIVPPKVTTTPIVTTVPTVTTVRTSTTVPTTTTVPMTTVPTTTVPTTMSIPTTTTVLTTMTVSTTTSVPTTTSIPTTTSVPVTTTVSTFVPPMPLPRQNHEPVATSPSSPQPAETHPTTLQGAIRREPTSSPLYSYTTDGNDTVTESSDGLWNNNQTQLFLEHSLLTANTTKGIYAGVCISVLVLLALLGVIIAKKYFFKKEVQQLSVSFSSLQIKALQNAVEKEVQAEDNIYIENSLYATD

T3: alanine scan peptide PMPLARQNHE
T3 construct: Synthetic; third P replaced by A
T3 peptide: PMPLARQNHE

T4: alanine scan peptide PMPLPRQAHE
T4 construct: Synthetic; N replaced by A
T4 peptide: PMPLPRQAHE

B1: anti-TIM-1 monoclonal antibody 1.29 (antibody, V domains shown)
VH: QVQLQESGPGLVKPSETLSLTCTVSGGSVSSGGYYWSWIRQPPGKGLEWIGFIYYTGSTNYNPSLKSRVSISVDTSKNQFSLKLSSVTAADAAVYYCARDYDWSFHFDYWGQGTLVTVSS
VL: DIQMTQSPSSLSASIGDRVTITCRASQGIRNDLGWYQQKPGKAPKRLIYAASSLQSGVPSRFSGSGSGTEFTLTISSLQPEDFATYYCLQHNSYPLTFGGGTKVEIKR
notes: also called mAb 1.29
B2: anti-TIM-1 monoclonal antibody 2.61 (antibody, V domains shown)
VH: QVQLVEAGGGVVQPGRSLRLSCAASGFTFRSYGMHWVRQAPGKGLKWVAVIWYDGSNKYYTDSVKGRFTISRDNSKNTLYLQMNSLRAEDTAVYYCVRDYYDNSRHHWGFDYWGQGTLVTVSS
VL: B1 VL with L11R, S12C, I15V, G34A, G66R, T85A, L96P, T97S, G100Q, V104L
B3: anti-TIM-1 monoclonal antibody 2.70 (antibody, V domains shown)
VH: B2 VH with A7S, T28I, R30S, S31R, Y59L, T61A, V97A
VL: DIVMTQTPLSLPVTPGEPASISCRSSRSLLDSDDGNTYLDWYLQKPGQSPQLLIYTLSYRASGVPDRFSGSGSGTDFTLKISRVEAEDVGVYYCMQRVEFPITFGQGTRLEIKR
B4: anti-TIM-1 monoclonal antibody 2.70.2 (antibody, human IgG4, kappa, V domains shown)
VH: B2 VH with A7S, T28I, R30S, S31R, Y59L, T61A, V97A
VL: B3 VL
notes: also called mAb 2.70.2; mAb2.70.2
B5: anti-TIM-1 monoclonal antibody 1.37 (antibody, V domains shown)
VH: EVQLVESGGGLVQPGGSLRLSCAASGFTFTNYWMSWVRQAPGKGLEWVANIQQDGSEKYYVDSVRGRFTISRDNAKNSLYLQMNSLRAEDSAVYYCARWDYWGQGTLVTVSS
VL: DIVMTQTPLSSTVILGQPASISCRSSQSLVHSDGNTYLNWLQQRPGQPPRLLIYMISNRFSGVPDRFSGSGAGTDFTLKISRVEAEDVGVYYCMQATESPQTFGQGTKVEIKR
B6: anti-TIM-1 monoclonal antibody 2.59 (antibody, V domains shown)
VH: QSGPRLVKPSQTLSLTCTVSGGSISSDGYYWSWIRQHPGKGLEWIGYIYYSGSTFYNPSLKSRVAISVDTSKNQFSLKLSSVTAADTAVYYCARESPHSSNWYSGFDCWGQGTLVTVSS
VL: TQSPDFQSVTPKEKVTITCRASQSIGSRLHWYQQKPDQSPKLLIKYASQSFSGVPSRFSGSGSGTDFTLTINSLEAEDAATYYCHQSSNLPFTFGPGTKVDIKR
B7: anti-TIM-1 monoclonal antibody 2.16 (antibody, V domains shown)
VH: EQSGGGVVKPGGSLRLSCAASGFTFSNAWMTWVRQAPGKGLEWVGRIKRRTDGGTTDYAAPVKGRFTISRDDSKNTLYLQMNNLKNEDTAVYYCTSVDNDVDYWGQGTLVTVSS
VL: not shown
notes: also called 2.16.1 (subclone)
B8: anti-TIM-1 monoclonal antibody 2.76 (antibody, V domains shown)
VH: EQSGGGVVQPGRSLRLSCAASGFTFSSYGMYWVRQAPGKGLEWVAVIWYDGSNKYYADSVKGRFTISRDNSKNTLYLQMNSLRAEDTAVYYCARDFYDSSRYHYGMDVWGQGTTVTVSS
VL: TQCPLSLPVTPGEPASISCRSSQSLLDSDDGNTYLDWYLQKPGQSPQLLIYTVSYRASGVPDRFSGSGSGTDFTLKISRVEAEDVGVYYCMQRIEFPITFGQGTRLEIKR

Experiments:
[1] = target: T1, TIM-1 antigen, soluble extracellular …; assay: BIAcore 2000, 25 C, mAb captured on goat anti-human surface, TIM-1 antigen injected at 292 nM
Procedure: BiaCore® analysis was used to determine binding affinity of anti-TIM-1 antibody to TIM-1 antigen. The analysis was performed at 25° C. using a BiaCore® 2000 biosensor equipped with a research-grade CMS sensor chip. A high-density goat a human antibody surface over a CMS BiaCore® chip was prepared using routine amine coupling. Antibody supernatants were diluted to ˜5 μg/mL in HBS-P running buffer containing 100 μg/mL BSA and 10 mg/mL carboxymethyldextran. The antibodies were then captured individually on a separate surface using a 2 minute contact time, and a 5 minute wash for stabilization of antibody baseline.
Double-referenced binding data were obtained by subtracting the signal from a control flow cell and subtracting the baseline drift of a buffer inject just prior to the TIM-1 injection. TIM-1 binding data for each mAb were normalized for the amount of mAb captured on each surface. The normalized, drift-corrected responses were also measured.

[2] = target: T2, TIM-1 (T cell, immunoglobulin domain …); assay: FACS on ACHN cells, normalised to isotype control pK16
[3] = target: T3, alanine scan peptide PMPLARQNHE; assay: ELISA on coated synthetic peptide (alanine scan)
[4] = target: T4, alanine scan peptide PMPLPRQAHE; assay: ELISA on coated synthetic peptide (alanine scan)
[5] = target: T2, TIM-1 (T cell, immunoglobulin domain …); assay: FACS on CAKI-2 cells, normalised to isotype control pK16

Row | Binder | Kd [1] [nM] | Geo Mean Ratio (relative to negative control) [2] [ratio] | binding result [3] | binding result [4] | Geo Mean Ratio (relative to negative control) [5] [ratio]
1 | B1 | 3.64 | 17.9 | – | – | –
2 | B2 | 1 | – | – | – | –
3 | B3 | 2.71 | – | – | – | –
4 | B4 | – | 19.4 | no binding | no binding | 8.8
5 | B5 | 2.78 | – | – | – | –
6 | B6 | 0.38 | 15.2 | – | – | 7.7
7 | B7 | 0.79 | 7.9 | – | – | –
8 | B8 | 0.57 | – | – | – | –
